Data: patent US20240197834A1 (HANMI PHARM, published 2024)
Square brackets hold non-standard residues; d marks the D form. Ends that are not written are not given here. Aib = CC(C)(N)C(=O)O

Target: glucagon receptor
Test: cell-based or functional assay

| Binder | In vitro activity (Relative Activity to SEQ ID NO: 1, %) |
| --- | --- |
| YXQGTFTSDYSKYLDSRRAQDFVQWLMNT (aminoisobutyric acid (Aib) at position 2 (printed X)) [glucagon derivative of SEQ ID NO: 33] | 108% |
| HSQGTFTSDYSKYLDSCEAQDFVQWLMNT [glucagon derivative of SEQ ID NO: 5] | 0.3% |
| Y[Aib]QGTFTSDYSKYLDSCDADDFVVWLINT [glucagon derivative of SEQ ID NO: 10] | < 0.1% |
| Y[Aib]QGTFTSDYSKYLDEKCAKEFVQWLMNT [glucagon derivative of SEQ ID NO: 11] | 4.6% |
| Y[Aib]QGTFTSDYSKYLDCRRAQVFVQWLMRT [glucagon derivative of SEQ ID NO: 16] | 4.2% |
| HSQGTFTSDYSKYLDSCEADDFVQWLMNT [glucagon derivative of SEQ ID NO: 6] | < 0.1% |
| Y[Aib]QGTFTSDYSKYLDCVRAQDFVQWLMRT [glucagon derivative of SEQ ID NO: 17] | 23.2% |
| YXQGTFTSDYSKYLDSRRAQDFVQWLMNTC (aminoisobutyric acid (Aib) at position 2 (printed X)) [glucagon derivative of SEQ ID NO: 44] | 75.4% |

Continued, values first:

| In vitro activity (Relative Activity to SEQ ID NO: 1, %) | Binder |
| --- | --- |
| < 0.1% | HSQGTFTSDYSKYLDSCDAQDFVQWLMNT [glucagon derivative of SEQ ID NO: 4] |
| 6.1% | HSQGTFTSDYSKYLDCERAQDFVQWLMNT [glucagon derivative of SEQ ID NO: 3] |
| 5.2% | Y[Aib]QGTFTSDYSCYLDEKRAKEFVQWLMNT [glucagon derivative of SEQ ID NO: 45] |
| 1.1% | Y[Aib]QGTFTSDYSKYLCEKRAQDFVVWLMNT [glucagon derivative of SEQ ID NO: 15] |
| < 0.1% | YSQGTFTSDYSKYLDSCEADDFVQWLMNT [glucagon derivative of SEQ ID NO: 7] |
| 18.1% | Y[Aib]QGTFTSDYSKYLDCKRAKEFVQWLMNT [glucagon derivative of SEQ ID NO: 14] |
| 1.6% | Y[Aib]QGTFTSDCSKYLDSRRAQDFVQWLMNT [glucagon derivative of SEQ ID NO: 43] |
| < 0.1% | Y[Aib]QGTFTSDYSKYLDSRRACDFRLWLMNT [glucagon derivative of SEQ ID NO: 18] |
| 37.9% | Y[Aib]QGTFCSDYSKYLDSRRAQDFVQWLMNT [glucagon derivative of SEQ ID NO: 42] |
| 0.6% | HSQGTFTSDYSKYLDCDRAQDFVQWLMNT [glucagon derivative of SEQ ID NO: 2] |
| 5.2% | Y[Aib]QGTFTSDYSCYLDSRRAQDFVQWLMNT [glucagon derivative of SEQ ID NO: 13] |
